This data set addresses hUBF (upstream binding factor, RNA polymerase I transcription factor) (Homo sapiens) (UniProt P17480). The data set is described as follows: footprint. The settings on record: apparent Kd, half-maximal binding; cooperative, Hill 2.7; 14 mM MgCl2, 50 mM KCl, pH 7.9, 30 C.

Sequence of hUBF (upstream binding factor, RNA polymerase I transcription factor) (Homo sapiens) (P17480 whole entry): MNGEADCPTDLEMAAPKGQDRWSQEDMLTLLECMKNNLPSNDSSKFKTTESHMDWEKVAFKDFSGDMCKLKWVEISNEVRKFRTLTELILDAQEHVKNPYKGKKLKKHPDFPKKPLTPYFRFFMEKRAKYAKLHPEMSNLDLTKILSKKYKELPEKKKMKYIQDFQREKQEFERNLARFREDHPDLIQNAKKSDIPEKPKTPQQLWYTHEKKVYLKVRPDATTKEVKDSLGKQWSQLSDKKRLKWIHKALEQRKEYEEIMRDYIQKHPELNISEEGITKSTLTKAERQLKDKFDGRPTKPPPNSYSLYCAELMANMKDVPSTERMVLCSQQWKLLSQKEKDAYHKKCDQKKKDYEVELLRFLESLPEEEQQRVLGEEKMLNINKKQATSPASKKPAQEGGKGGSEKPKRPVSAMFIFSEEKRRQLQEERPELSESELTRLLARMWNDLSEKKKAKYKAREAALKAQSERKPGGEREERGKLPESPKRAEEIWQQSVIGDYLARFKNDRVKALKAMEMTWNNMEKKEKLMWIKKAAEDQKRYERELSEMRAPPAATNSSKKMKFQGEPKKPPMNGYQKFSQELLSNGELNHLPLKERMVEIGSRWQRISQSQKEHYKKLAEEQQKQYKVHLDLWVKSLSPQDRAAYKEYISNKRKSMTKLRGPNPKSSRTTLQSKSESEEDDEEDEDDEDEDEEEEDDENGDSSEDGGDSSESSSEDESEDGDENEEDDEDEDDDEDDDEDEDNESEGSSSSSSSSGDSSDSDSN

Consider “human rRNA gene promoter fragment -208 to +78 (EcoRI-BstEII of pSBr208)”, for which the Kd was 0.018 nM.

The record behind these values is patent publication US6500669.
